Legend:
[1] = biological target: T1, GST_Akt1^S473D (UniProt P31749 1-480, S473D); assay: pull-down; GST pull-down: 15 µM FKBPs or Cyp40 with 22 µM GST_Akt1 S473D or GST_Akt1 S473D_ΔPH on glutathione resin, 3 h, 4 °C, NETN buffer (20 mM Tris-HCl pH 8.0, 100 mM NaCl, 1 mM EDTA, 0.5% igepal); AMP-PNP (5 mM), rapamycin (1 µM) or DMSO where indicated; Western blot; conditions: both partners purified
T1 construct: Akt1 with the phosphomimetic S473D, called constitutively active; also called purified GST-tagged Akt1S473D; GST-tagged active Akt

[2] = biological target: T2, purified inactive Akt1 (untagged) (UniProt P31749 1-480); assay: pull-down; FLAG pull-down: FLAG column saturated with FKBP51_FLAG, 20 µM inactive Akt, NETN buffer, 4 °C overnight, eluted with FLAG peptide; Western blot; conditions: both partners purified
T2 construct: source: bought: Merck Millipore
T2 sequence (P31749 whole entry): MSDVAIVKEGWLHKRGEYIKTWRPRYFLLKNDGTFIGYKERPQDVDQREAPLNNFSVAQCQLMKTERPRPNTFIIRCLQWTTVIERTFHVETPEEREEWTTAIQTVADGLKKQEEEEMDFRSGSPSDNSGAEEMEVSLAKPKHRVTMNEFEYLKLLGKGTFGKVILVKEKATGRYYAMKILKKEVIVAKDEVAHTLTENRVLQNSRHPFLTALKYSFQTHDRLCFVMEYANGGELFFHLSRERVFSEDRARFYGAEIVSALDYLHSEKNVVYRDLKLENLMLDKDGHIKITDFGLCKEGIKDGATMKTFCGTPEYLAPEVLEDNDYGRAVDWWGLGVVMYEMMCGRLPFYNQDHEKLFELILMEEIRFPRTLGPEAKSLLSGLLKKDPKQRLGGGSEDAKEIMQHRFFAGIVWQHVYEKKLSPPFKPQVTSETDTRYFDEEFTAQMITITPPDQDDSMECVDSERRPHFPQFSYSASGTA

T1 sequence (P31749 whole entry S473D): as the sequence (P31749 whole entry) above, with S473D counted along it

| Binder | binding result [1] | binding result [2] |
| --- | --- | --- |
| purified isolated FK506-binding domain of FKBP51 (FKBP51FK1) (domain or fragment, UniProt Q13451 1-140, looked up, detection was with an antibody against the FK1 domain; also called FLAG-tagged FKBP51FK1; source: purified) MTTDEGAKNNEESPTATVAEQGEDITSKKDRGVLKIVKRVGNGEETPMIGDKVYVHYKGKLSNGKKFDSSHDRNEPFVFSLGKGQVIKAWDIGVATMKKGEICHLLCKPEYAYGSAGSLPKIPSNATLFFEIELLDFKGE | binds |  |
| purified FKBP52 (natural protein, UniProt Q02790 1-459, looked up, FKBP52, His-tagged full length) MTAEEMKATESGAQSAPLPMEGVDISPKQDEGVLKVIKREGTGTEMPMIGDRVFVHYTGWLLDGTKFDSSLDRKDKFSFDLGKGEVIKAWDIAIATMKVGEVCHITCKPEYAYGSAGSPPKIPPNATLVFEVELFEFKGEDLTEEEDGGIIRRIQTRGEGYAKPNEGAIVEVALEGYYKDKLFDQRELRFEIGEGENLDLPYGLERAIQRMEKGEHSIVYLKPSYAFGSVGKEKFQIPPNAELKYELHLKSFEKAKESWEMNSEEKLEQSTIVKERGTVYFKEGKYKQALLQYKKIVSWLEYESSFSNEEAQKAQALRLASHLNLAMCHLKLQAFSAAIESCNKALELDSNNEKGLFRRGEAHLAVNDFELARADFQKVLQLYPNNKAAKTQLAVCQQRIRRQLAREKKLYANMFERLAEEENKAKAEASSGDHPTDTEMKEEQKSNTAGSQSQVETEA | binds |  |
| purified FKBP51 ΔFK1_FLAG (domain or fragment, UniProt Q13451 143-457, looked up, FKBP51 without the FK1 domain; It was the only construct not checked by active site titration; also called FKBP51 ΔFK1 construct; pProExHta_ΔFK1; source: purified) FEDGGIIRRTKRKGEGYSNPNEGATVEIHLEGRCGGRMFDCRDVAFTVGEGEDHDIPIGIDKALEKMQREEQCILYLGPRYGFGEAGKPKFGIEPNAELIYEVTLKSFEKAKESWEMDTKEKLEQAAIVKEKGTVYFKGGKYMQAVIQYGKIVSWLEMEYGLSEKESKASESFLLAAFLNLAMCYLKLREYTKAVECCDKALGLDSANEKGLYRRGEAQLLMNEFESAKGDFEKVLEVNPQNKAARLQISMCQKKAKEHNERDRRIYANMFKKFAEQDAKEEANKAMGKKTSEGVTNEKGTDSQAMEEEKPEGHV | binds |  |
| purified FLAG-tagged FKBP51 (natural protein, UniProt Q13451 1-457, looked up, FKBP51, His-tagged full length; also called FKBP51_FLAG; purified FKBP51) MTTDEGAKNNEESPTATVAEQGEDITSKKDRGVLKIVKRVGNGEETPMIGDKVYVHYKGKLSNGKKFDSSHDRNEPFVFSLGKGQVIKAWDIGVATMKKGEICHLLCKPEYAYGSAGSLPKIPSNATLFFEIELLDFKGEDLFEDGGIIRRTKRKGEGYSNPNEGATVEIHLEGRCGGRMFDCRDVAFTVGEGEDHDIPIGIDKALEKMQREEQCILYLGPRYGFGEAGKPKFGIEPNAELIYEVTLKSFEKAKESWEMDTKEKLEQAAIVKEKGTVYFKGGKYMQAVIQYGKIVSWLEMEYGLSEKESKASESFLLAAFLNLAMCYLKLREYTKAVECCDKALGLDSANEKGLYRRGEAQLLMNEFESAKGDFEKVLEVNPQNKAARLQISMCQKKAKEHNERDRRIYANMFKKFAEQDAKEEANKAMGKKTSEGVTNEKGTDSQAMEEEKPEGHV | binds | binds |
